Target: human ICAM-1 extracellular domain with human IgG1 Fc (UniProt P05362)
Experiment: flow cytometry on cells
Details: HEK293FT cells; co-expressed with β2-WT and GFP-TH; parent: est. 270; read off a plot

UniProt P05362, sequence (P05362 whole entry, looked up, the tested form may be a part): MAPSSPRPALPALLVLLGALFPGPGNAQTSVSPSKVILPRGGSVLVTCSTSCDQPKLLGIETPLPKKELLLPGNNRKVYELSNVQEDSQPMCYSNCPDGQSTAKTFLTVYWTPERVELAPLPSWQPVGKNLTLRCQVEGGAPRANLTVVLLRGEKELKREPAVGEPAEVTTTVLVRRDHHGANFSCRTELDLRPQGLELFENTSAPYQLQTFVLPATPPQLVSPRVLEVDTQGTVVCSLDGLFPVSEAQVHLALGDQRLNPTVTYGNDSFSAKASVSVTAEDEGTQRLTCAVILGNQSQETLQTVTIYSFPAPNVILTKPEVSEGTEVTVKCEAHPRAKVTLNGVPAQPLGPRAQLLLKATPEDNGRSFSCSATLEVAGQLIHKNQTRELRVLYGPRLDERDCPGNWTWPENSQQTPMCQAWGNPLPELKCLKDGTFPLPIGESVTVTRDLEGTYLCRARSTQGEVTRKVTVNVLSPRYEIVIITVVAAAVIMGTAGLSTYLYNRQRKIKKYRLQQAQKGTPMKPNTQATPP

response (Normalized MFI in %) | Substance
190 | αL-WT/β2-WT αL:K1097Y
230 | αL-WT/β2-WT αL:L1096Y
